In data set [1] the target is T1, human chorionic gonadotropin (hCG) heterodimer (Homo sapiens, UniProt P01215;P0DN86 P01215:25-116,P0DN86:21-165). The data set is described as follows: filter. The following applies: tags: Calbiochem or Vitro Diagnostics (14,000 IU/mg); chain copies: alpha/beta heterodimer (stated); label: 32P.
Data set [2] deals with T1, human chorionic gonadotropin (hCG) …. The data set can be described thus: filter. As to conditions: tags: Calbiochem or Vitro Diagnostics (14,000 IU/mg); chain copies: alpha/beta heterodimer (stated); label: 32P. This is another data set of the same source.

Where a chain is given by its changes, count along the chain named.

T1 sequence (P01215 25-116, chain 1 of 2, other chains not shown): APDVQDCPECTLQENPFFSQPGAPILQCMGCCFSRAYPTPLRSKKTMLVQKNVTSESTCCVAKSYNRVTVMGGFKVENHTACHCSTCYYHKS

B1: 2nd generation ligand 33 (ssRNA)
RNA: GGGAGGACGAUGCGGUUCGAUGGCCAUUUGAACGAUCCUUAUUAUCAACGGUCCAGACGACUCGCCCGA
modifications: 2'-F all pyrimidines
The molecule B1 had a binding signal in data set [1] of 0.59 % bound at 100 nM.

B2: 2nd generation ligand 98 (ssRNA)
RNA: GGGAGGACGAUGCGGGUUCCAGUAUUAGUUGAACGAUCCUUCUUAUCUGGAGUCCAGACGACUCGCCCGA
modifications: 2'-F all pyrimidines
For B2, the binding signal in data set [1] is 11.7 % bound at 100 nM.

B3: 2nd generation ligand 93 (ssRNA)
RNA: GGGAGGACGAUGCGGUUCUAGGUCGAAAUUGAACGAUCCUUUUUCGCUAUGGAUCAGACGACUCGCCCGA
modifications: 2'-F all pyrimidines
As for B3, the binding signal in data set [1] was 7.25 % bound at 100 nM.

B4: 2nd generation ligand 61 (ssRNA)
RNA: GGGAGGACGAUGCGGUUUAGUGUUUAGUUGAACGAUCCUUCUAACACCAGUCCCAGACGACUCGCCCGA
modifications: 2'-F all pyrimidines
B4: in data set [1], the binding signal worked out at 15.5 % bound at 100 nM.

B5: 2nd generation ligand 19 (ssRNA)
RNA: GGGAGGACGAUGCGGUUUGACGUAUAAUUGAACGAUCCUUUUCUAGCUUAGACCAGACGACUCGCCCGA
modifications: 2'-F all pyrimidines
For the molecule B5, the binding signal in data set [1] worked out at 8.52 % bound at 100 nM.

B6: 2nd generation ligand 83 (ssRNA)
RNA: GGGAGGACGAUGCGGUUUGAUGAGGUAGUUGAACGAUCCUUCCAUCCGUUAGACCAGACGACUCGCCCGA
modifications: 2'-F all pyrimidines
In data set [1], B6 showed a binding signal of 4.48 % bound at 100 nM.

B7: 2nd generation ligand 58 (ssRNA)
RNA: GGGAGGACGAUGCGGUCUUAAGUUUGAAUUGAACGAUCCUUUUCUUCCAGGCAACAGACGACUCGCCCGA
modifications: 2'-F all pyrimidines
In data set [1], B7 returned a binding signal of 0 % bound at 100 nM.

B8: 2nd generation ligand 42 (ssRNA)
RNA: GGGAGGACGAUGCGGGUUCGAAACUUCCUUGAACGAUCCUUGGAUGUUUUGCUCAGACGACUCGCCCGA
modifications: 2'-F all pyrimidines
B8: the binding signal in data set [1] was 0.54 % bound at 100 nM.

B9: 2nd generation ligand 9 (ssRNA)
RNA: GGGAGGACGAUGCGGUUCUACACGAUAUUUGAACGAUCCUUGUAUCUUAGGUCCCAGACGACUCGCCCGA
modifications: 2'-F all pyrimidines
Consider B9, for which the binding signal in data set [1] was found to be 9.98 % bound at 100 nM.

B10: 2nd generation ligand 88 (ssRNA)
RNA: GGGAGGACGAUGCGGUUCGUUACGAUAAUUGAACGAUCCUUUUAUCUUUCAGUCCAGACGACUCGCCCGA
modifications: 2'-F all pyrimidines
In data set [1], B10 came in with a binding signal of 0.32 % bound at 100 nM.

B11: Class 1 ligand 11 (ssRNA)
RNA: GGGAGACAAGAAUAAACGCUCAAUUUAGAAGAUCCCGGAGUCUCGUUGGUCGUUGAACGAUCCUUCGACAGGAGGCUCACAACAGGC
modifications: 2'-F all pyrimidines
Regarding B11, the binding signal in data set [2] is 3.09 % bound at 100 nM.

B12: Class 1 ligand 40 (ssRNA)
RNA: B11 RNA with U26C, A27U, G37A
modifications: 2'-F all pyrimidines
In data set [2], B12 returned a binding signal of 2.2 % bound at 100 nM.

B13: Class 1 ligand 10 (ssRNA)
RNA: B11 RNA with U26C, A27G, C35A
modifications: 2'-F all pyrimidines
B13 displayed a binding signal in data set [2] of 3.59 % bound at 100 nM.

B14: Class 1 ligand 26 (ssRNA)
RNA: B11 RNA with A27G, G37U
modifications: 2'-F all pyrimidines
B14 came in with a binding signal in data set [2] of 3.34 % bound at 100 nM.

B15: Class 1 ligand 18 (first SELEX) (ssRNA)
RNA: B11 RNA with A27C, G37U
modifications: 2'-F all pyrimidines
In data set [2], B15 came in with a binding signal of 2.69 % bound at 100 nM.

B16: Class 1 ligand 49 (ssRNA)
RNA: B11 RNA with A27G, G38A, A39G, G40A
modifications: 2'-F all pyrimidines
In data set [2], B16 returned a binding signal of 3.77 % bound at 100 nM.

B17: Class 1 ligand 16 (ssRNA)
RNA: B11 RNA with U26C, A27G, G37A
modifications: 2'-F all pyrimidines
On to B17, for which, in data set [2], the binding signal was determined as 5.41 % bound at 100 nM.

B18: Class 1 ligand 5 (ssRNA)
RNA: B11 RNA with U24A, A27G, A30G, G31U, G37U, C44U, A60G
modifications: 2'-F all pyrimidines
Regarding B18, the binding signal in data set [2] was found to be 1.26 % bound at 100 nM.

B19: 2nd generation ligand 23 (ssRNA)
RNA: GGGAGGACGAUGCGGGUUUAAUACAAAGUUGAACGAUCCUUCUUUGCAUUGGACCAGACGACUCGCCCGA
modifications: 2'-F all pyrimidines
Turning to B19, the binding signal in data set [1] was 13 % bound at 100 nM.

B20: Class 1 ligand 43 (ssRNA)
RNA: GGGAGACAAGAAUAAACGCUCAACCAGAUAAUCCCAAUGAGUCCCUCGAGAUUGAACGAUCCUUUCGACAGGAGGCUCACAACAGGC
modifications: 2'-F all pyrimidines
The molecule B20 registered a binding signal in data set [2] of 0.93 % bound at 100 nM.

B21: 2nd generation ligand 25 (ssRNA)
RNA: GGGAGGACGAUGCGGUUCCUGAUUCAAGUUGAACGAUCCUUCCUGCUGUACGUCCAGACGACUCGCCCGA
modifications: 2'-F all pyrimidines
In data set [1], B21 returned a binding signal of 0.28 % bound at 100 nM.

B22: 2nd generation ligand 73 (ssRNA)
RNA: GGGAGGACGAUGCGGGGUUUUCUAAGUGUUGAACGAUCCUUCACAUAGCGUGUCCCAGACGACUCGCCCGA
modifications: 2'-F all pyrimidines
B22: the binding signal in data set [1] worked out at 0.84 % bound at 100 nM.

B23: 2nd generation ligand 71 (ssRNA)
RNA: GGGAGGACGAUGCGGAUUCGAUUAGAGAUUGAACGAUCCUUUCAUCAGUUGGAUCAGACGACUCGCCCGA
modifications: 2'-F all pyrimidines
The molecule B23 returned a binding signal in data set [1] of 6.99 % bound at 100 nM.

B24: 2nd generation ligand (SEQ 118) (ssRNA)
RNA: GGGAGGACGAUGCGGGUUCGACAUAAUCUUGAACGAUCCUUGAUUACUUGGUCCCAGACGACUCGCCCGA
modifications: 2'-F all pyrimidines
On to B24, for which the binding signal in data set [1] worked out at 13 % bound at 100 nM.

B25: Class 1 ligand 37 (ssRNA)
RNA: GGGAGACAAGAAUAAACGCUCAAUUUGGAAGGUCCUGAGUCUCGUUGGUCGUUGAACGAUCCUUCGACAGGAGGCUCACAACAGGC
modifications: 2'-F all pyrimidines
For the molecule B25, the binding signal in data set [2] came to 1.89 % bound at 100 nM.

B26: 2nd generation ligand 14 (ssRNA)
RNA: GGGAGGACGAUGCGGUUCGACACGAAAGUUGAACGAUCCUUCUAUCUGUUGGACCAGACGACUCGCCCGA
modifications: 2'-F all pyrimidines
B26 came in with a binding signal in data set [1] of 15.4 % bound at 100 nM.

B27: 2nd generation ligand 86 (ssRNA)
RNA: GGGAGGACGAUGCGGUUCAACAACGUACUUGAACGAUCCUUGUGCUCGUUGAUCCAGACGACUCGCCCGA
modifications: 2'-F all pyrimidines
As to B27, the binding signal in data set [1] was determined as 0.57 % bound at 100 nM.

B28: 2nd generation ligand 89 (ssRNA)
RNA: GGGAGGACGAUGCGGUGCAUGAUUUAGUUGAACGAUCCUUCCAACUUCCAGCACAGACGACUCGCCCGA
modifications: 2'-F all pyrimidines
Molecule B28 showed a binding signal in data set [1] of 0.21 % bound at 100 nM.

B29: 2nd generation ligand 72 (ssRNA)
RNA: GGGAGGACGAUGCGGAUUCGAUGUAGUUUGAACGAUCCUUGUAUAUAUCGGAUCAGACGACUCGCCCGA
modifications: 2'-F all pyrimidines
As for B29, the binding signal in data set [1] was 0.3 % bound at 100 nM.

B30: Class 1 ligand 8 (ssRNA)
RNA: GGGAGACAAGAAUAAACGCUCAAGUGCCCUGUUAUCUUCCUCGAUCGAUUGAACGAUCCUUUCGACAGGAGGCUCACAACAGGC
modifications: 2'-F all pyrimidines
Take B30: the binding signal in data set [2] was 0.98 % bound at 100 nM.

B31: 2nd generation ligand 91 (ssRNA)
RNA: GGGAGGACGAUGCGGUUCAUUUUUGUGUUGAACGAUCCUUCACUAACCUACCACAGACGACUCGCCCGA
modifications: 2'-F all pyrimidines
For B31, in data set [1], the binding signal turned out to be 2.36 % bound at 100 nM.

B32: 2nd generation ligand 10 (ssRNA)
RNA: GGGAGGACGAUGCGGAACACCAAUCUUUUUGAACGAUCCUUCGUGGGAGUGCAUCAGACGACUCGCCCGA
modifications: 2'-F all pyrimidines
In data set [1], B32 came in with a binding signal of 0 % bound at 100 nM.

B33: Class 1 ligand 30 (ssRNA)
RNA: GGGAGACAAGAAUAAACGCUCAAAAGUCACUCGCAGCGCUUCCUGGUUCGAUUGAACGAUCCUUUCGACAGGAGGCUCACAACAGGC
modifications: 2'-F all pyrimidines
For B33, the binding signal in data set [2] worked out at 0.58 % bound at 100 nM.

B34: 2nd generation ligand 20 (ssRNA)
RNA: GGGAGGACGAUGCGGUGUUCAUGCUUGAUUGAACGAUCCUUUCAUAGUGUUGGUCAGACGACUCGCCCGA
modifications: 2'-F all pyrimidines
B34 yielded a binding signal in data set [1] of 8.37 % bound at 100 nM.

B35: 2nd generation ligand 69 (ssRNA)
RNA: GGGAGGACGAUGCGGGUUUCACUUCAAGUUGAACGAUCCUUCUUGGCUUGAGCACAGACGACUCGCCCGA
modifications: 2'-F all pyrimidines
In turn, B35 had a binding signal in data set [1] of 18.8 % bound at 100 nM.

B36: 2nd generation ligand 5 (ssRNA)
RNA: GGGAGGACGAUGCGGGUUUAAUCUCGGAUUGAACGAUCCUUUCUGUAAUUAGUCCAGACGACUCGCCCGA
modifications: 2'-F all pyrimidines
As for B36, the binding signal in data set [1] was 3.14 % bound at 100 nM.

B37: 2nd generation ligand 52 (ssRNA)
RNA: GGGAGGACGAUGCGGGAUUUUCCGUUAAUUGAACGAUCCUUUUCACGGACUGCAGACGACUCGCCCGA
modifications: 2'-F all pyrimidines
In turn, B37 came in with a binding signal in data set [1] of 6.01 % bound at 100 nM.

B38: Class 1 ligand 20 (ssRNA)
RNA: GGGAGACAAGAAUAAACGCUCAAGUCAUAAGCCUAACGGUCCCUAGUCAAUUGAACGAUCCUUCGACAGGAGGCUCACAACAGGC
modifications: 2'-F all pyrimidines
In data set [2], B38 gave a binding signal of 0.13 % bound at 100 nM.

B39: Class 1 ligand 4 (ssRNA)
RNA: GGGAGACAAGAAUAAACGCUCAAUUUGGAAGAUCCCGGAGUCUCGUUGGUGUUGAACGAUUCUUCGACAGGAGGCUCACAACAGGC
modifications: 2'-F all pyrimidines
Turning to B39, the binding signal in data set [2] stood at 4.81 % bound at 100 nM.

B40: 2nd generation ligand 49 (ssRNA)
RNA: GGGAGGACGAUGCGGUUCGUCAUCGCUAUUGAACGAUCCUUUAGCUGAUGGACCAGACGACUCGCCCGA
modifications: 2'-F all pyrimidines
On to B40, for which the binding signal in data set [1] was 14.4 % bound at 100 nM.

B41: Class 1 ligand 56 (ssRNA)
RNA: GGGAGACAAGAAUAAACGCUCAAUUUGGAAGAUCCCUGGAGUCUCGUUGGUCGUUGAACGAUCCUUCGACAGGAGGCUCACAACAGGC
modifications: 2'-F all pyrimidines
Consider B41, for which the binding signal in data set [2] amounted to 3.85 % bound at 100 nM.

B42: 2nd generation ligand 11 (ssRNA)
RNA: GGGAGGACGAUGCGGGAUUCUCUUUGAGUUGAACGAUCCUUCUCAUCGCACUUGCCAGACGACUCGCCCGA
modifications: 2'-F all pyrimidines
In data set [1], B42 came in with a binding signal of 10 % bound at 100 nM.

B43: 2nd generation ligand 74 (ssRNA)
RNA: GGGAGGACGAUGCGGUAAGUUCUAACUUUUGAACGAUCCUUGGCACCCUGACUACAGACGACUCGCCCGA
modifications: 2'-F all pyrimidines
Molecule B43 had a binding signal in data set [1] of 11.5 % bound at 100 nM.

Source of the values: patent publication US5849890, “High affinity oligonucleotide ligands to chorionic gonadotropin hormone and related glycoprotein hormones” (NeXstar Pharmaceuticals, Inc.).
